Measurements published in patent US20200238197A1.

Legend:
[1] = target: Polyclonal human IgG Gammanorm; test: Binder coupled to Praesto Pure45 agarose beads. Mass of injected polyclonal hIgG (Gammanorm) at 10% breakthrough, 6 min residence time (Example 10).
human IgG1 = test: ELISA, IgG1 antibody coated on plate, detection with Strep-Tactin-HRP

Row | Kd (human IgG1) [nM] | Substance | dynamic binding capacity [1] [mg/mL]
1 |  | R PROTEIN A | 37.4
2 | 3.1 | Staphylococcus aureus Protein A domain B | 
